Data on 3 molecules can be found in patent US20240076689A1, “VIRAL VECTORS AND NUCLEIC ACIDS FOR REGULATED GENE THERAPY” (Boehringer Ingelheim International GmbH, priority 2020, published 2024).

For data set [1], the system named is IL-12 and IFNγ plasma levels, body weight, liver enzymes. As to the kind of experiment: Dose-finding study to determine PK and safety of Tet-switch-controlled IL-12 (FIG. 18). The note with it: 30 mg/kg i.p. twice daily for 5 consecutive days.
The conditions of data set [2]: four 100 mg/kg Tet doses in 8 h intervals.
Data set [3] is described as follows: Tet plasma concentration in the mIL-12 time course study. The note with it: female, C57Bl/6, mouse, in vivo.
Data set [4] concerns eGFP expression in HEK293 cells. As to the kind of experiment: Tet-dependent eGFP expression from K19 constructs in transfected HEK293 cells. The note with it: HEK293, independent of Tet.
Data set [5] relates to eGFP and sNLuc expression in HEK293 cells. As to the kind of experiment: K19 riboswitch kinetics in HEK293 cells (qPCR, fluorescence, Western blot, sNLuc). (Real-time PCR tracks product formation cycle by cycle.)

With `CN(C)[C@@H]1C(O)=C(C(N)=O)C(=O)[C@@]2(O)C(O)=C3C(=O)c4c(O)cccc4[C@@](C)(O)[C@H]3C[C@@H]12` [Tet, tetracycline], the “tolerability of Tet (in words)” value in data set [1] was “well tolerated”. In data set [2], the “other signs of toxicity” value is reported as “no other signs of toxicity were observed”. The results for the concentration at 8 h in data set [3] (10 mg/kg) and in data set [3] (30 mg/kg) were 100 nM and 750 nM, respectively.

B1: catalytically inactive K19 switch: control plasmid harboring a catalytically inactive, non-cleaving K19 switch (SEQ ID No. 45) (nucleic acid)
chain: GGCGCGTCCTGGATTCGTGGTAAAACATACCAGATTTCGATCTGGAGAGGTGAAGAATACGACCACCTACTACATCCAGCTGATGAGTCCCAAATAGGACGAGACGCGCT
modifications: the letters are possibly those of the target site
Regarding B1, the “steady eGFP expression level, of constitutive signal” value in data set [4] was “about 90%”.

B2: K19: Tet-responsive aptazyme: tetracycline aptamer plus hammerhead ribozyme N79 (Beilstein et al. 2015), SEQ ID NO:9/10; tested in active-switch plasmids (nucleic acid)
chain 1: GGCGCGTCCTGGATTCGTGGTAAAACATACCAGATTTCGATCTGGAGAGGTGAAGAATACGACCACCTACTACATCCAGCTGATGAGTCCCAAATAGGACGAAACGCGCT
chain 2: GGCGCGUCCUGGAUUCGUGGUAAAACAUACCAGAUUUCGAUCUGGAGAGGUGAAGAAUACGACCACCUACUACAUCCAGCUGAUGAGUCCCAAAUAGGACGAAACGCGCU
modifications: chemistry not fully specified; one strand in two spellings; the letters are possibly those of the target site
Turning to B2, in data set [5] (HEK293, 50 μM Tet), the “onset of eGFP expression induction on the mRNA level after Tet addition” value is listed as 15 min, the “onset of increase in direct eGFP fluorescence signal after Tet addition” value is “two” and the “time to full induction on the mRNA level” value is “four”. Besides, the “reversibility upon Tet retraction (in words)” value in data set [5] (HEK293 previously grown in presence of Tet) was “relative decrease in sNLuc expression was observed”. In data set [5] (HEK293 supernatant), the “Tet-induced sNLuc increase detected after addition” value is listed as 2 h and the “time to saturation of sNLuc increase” value lay in the range of 4 to 8 h.
